Experimental data as given in US20100286027A1, “ANTI-BACTERIAL COMPOSITIONS” (priority 2008, published 2010).

Assays:
[1] = system: Enterococcus faecalis (29212); assay: BacTiter-Glo bacterial ATP content viability assay; conditions: Enterococcus faecalis (29212), gram +; +/− SD, n = 3; >100 = activity detected but <50% inhibition
Escherichia coli (25922) = assay: BacTiter-Glo bacterial ATP content viability assay; conditions: gram −, +/− SD, n = 3, >100 = activity detected but <50% inhibition
[2] = system: Prevotella intermedia NB88001; assay: MIC against anaerobic bacteria; assay type: cell-based
[3] = system: Streptococcus pneumoniae (ATCC 49619); assay: Gentamycin protection assay in stable 293 cell lines; conditions: 293 cells stably expressing the protein, infected with S. pneumoniae at MOI 10:1, versus control cells
[4] = system: Fusobacterium nucleatum NB86006; assay: MIC against anaerobic bacteria; assay type: cell-based
[5] = system: Stenotrophomonas maltophilia (17666); assay: BacTiter-Glo bacterial ATP content viability assay; conditions: gram −, +/− SD, n = 3, >100 = activity detected but <50% inhibition
[6] = system: P. aeruginosa NB52020* (mexAB/oprM efflux pump mutant); assay: MIC against aerobic gram negative bacteria, efflux pump mutant; assay type: cell-based, Pseudomonas aeruginosa; conditions: aerobic gram negative; P. aeruginosa NB52020*, mexAB/oprM efflux pump mutant strain
[7] = system: Bacteroides fragilis NB85001; assay: MIC against anaerobic bacteria; assay type: cell-based
[8] = system: Clostridium difficile NB95002; assay: MIC against anaerobic bacteria; assay type: cell-based
[9] = system: H. influenzae NB65027-CDS0021* (TolC efflux pump mutant); assay: MIC against aerobic gram negative bacteria, efflux pump mutant; assay type: cell-based, Haemophilus influenzae; conditions: aerobic gram negative; H. influenzae NB65027-CDS0021*, TolC efflux pump mutant strain
Escherichia coli (8739) = assay: BacTiter-Glo bacterial ATP content viability assay; conditions: gram −, +/− SD, n = 3, >100 = activity detected but <50% inhibition
[10] = system: lawn of the indicated bacteria; assay: Agar diffusion assay; conditions: FIG. 11 Panel D; 0.5 mg/ml in sterile PBS per well
E. coli = assay: Membrane polarity, DiBAC4 uptake by flow cytometry; conditions: FIG. 11 Panel A; 5×10^5 bacteria in 100 μL, 2 hours at 37° C.
[11] = system: Peptostreptococcus anaerobius NB97001; assay: MIC against anaerobic bacteria; assay type: cell-based
[12] = system: Staphylococcus aureus (29213); assay: BacTiter-Glo bacterial ATP content viability assay
L. monocytogenes = assay: Bacterial growth inhibition (FIG. 15); assay type: cell-based, Listeria monocytogenes; conditions: FIG. 15 Panel C
[13] = system: Clostridium ramosum NB95010; assay: MIC against anaerobic bacteria; assay type: cell-based
Staphylococcus aureus = assay: Competition assay of Nod2 LRR activity against S. aureus; assay type: cell-based; conditions: then live S. aureus
Procedure: FIG. 6: Purified Nod2 LRR domains (Nod2: 30 microgram/ml) were preincubated with 200 microgram/ml of the indicated bacterial component prior to addition to Staphylococcus aureus. BSA was added as a protein control. Commercial […] extracts (sPGN: soluble […], iPGN: insoluble proteoglycan), lipoteichoic acid (LTA: crude lipoteichoic acid extract, upLTA: ultrapure lipoteichoic acid extract), or heat-killed S. aureus (HKSA) were used. Control indicates bacterial growth in the presence of BSA only.
If this interaction was the initiating factor for the Nod2 LRR antimicrobial effects, preincubating the domains with bacterial components containing this motif would be expected to inhibit the antibacterial activity. A competition assay was set up using Nod2 LRR activity against S. aureus. The recombinant LRR domains or BSA (control) were preincubated with various components of the S. aureus membrane prior to addition to live S. aureus and the bacterial viability assessed as in Table 1 above (FIG. 6).

[14] = system: E. coli NB27005* (TolC efflux pump mutant); assay: MIC against aerobic gram negative bacteria, efflux pump mutant; assay type: cell-based, Escherichia coli; conditions: aerobic gram negative; E. coli NB27005*, TolC efflux pump mutant strain
[15] = system: Listeria monocytogenes (7644); assay: BacTiter-Glo bacterial ATP content viability assay; conditions: Listeria monocytogenes (7644), gram +; +/− SD, n = 3; >100 = activity detected but <50% inhibition
[16] = system: Streptococcus pneumoniae (49619); assay: BacTiter-Glo bacterial ATP content viability assay; conditions: gram +, +/− SD, n = 3, >100 = activity detected but <50% inhibition
porins (OmpC and OmpF) = assay: LRR domain affinity column and mass spectrometry protein identification; conditions: guanidinium HCl extract of detergent-insoluble E. coli fraction; SDS-PAGE, mass spectrometry
E. coli NB27004 = assay: MIC against aerobic gram negative bacteria; assay type: cell-based, Escherichia coli
[17] = system: Salmonella choleraesuis (13076); assay: BacTiter-Glo bacterial ATP content viability assay; conditions: gram −, +/− SD, n = 3, >100 = activity detected but <50% inhibition
[18] = system: gram-positive and gram-negative anaerobic bacteria; assay: MIC against panel of anaerobic bacteria, comparison with ciprofloxacin; assay type: cell-based; conditions: against all the anaerobic bacteria tested; molecular weights ~30000 da and 386 da
[19] = system: Klebsiella pneumoniae (700603); assay: BacTiter-Glo bacterial ATP content viability assay; conditions: gram −, +/− SD, n = 3, >100 = activity detected but <50% inhibition
[20] = system: Eubacterium lentum NB94001; assay: MIC against anaerobic bacteria; assay type: cell-based
H. influenzae NB65027 = conditions: aerobic gram negative

B1: Nod2: purified recombinant LRR domain of Nod2 expressed in E. coli; human NOD2-LRR is SEQ ID NO: 3; ~30000 da (protein, listed as Homo sapiens)
chain: PAAPGEAKSVHAMPGFIWLIRSLYEMQEERLARKAARGLNVGHLKLTFCSVGPTECAALAFVLQHLRRPVALQLDYNSVGDIGVEQLLPCLGVCKALYLRDNNISDRGICKLIECALHCEQLQKLALFNNKLTDGCAHSMAKLLACRQNFLALRLGNNYITAAGAQVLAEGLRGNTSLQFLGFWGNRVGDEGAQALAEALGDHQSLRWLSLVGNNIGSVGAQALALMLAKNVMLEELCLEENHLQDEGVCSLAEGLKKNSSLKILKLSNNCITYLGAEALLQALERNDTILEVWLRGNTFSLEEVDKLGCRDTRLLL
notes: purified recombinant LRR domain of Nod2 expressed in E. coli; ~30000 da
antibacterial activity by bacterial ATP content (IC50), [LRR domain] [1]: 6.8 +/− 1.6 microgram/ml | antibacterial activity by bacterial ATP content (IC50), [LRR domain] (Escherichia coli (25922)): >100 microgram/ml | minimal inhibitory concentration (MIC) [2]: 4 microgram/ml | number of gentamycin-protected intracellular bacteria [3]: drastically reduced | minimal inhibitory concentration (MIC) [4]: 8 microgram/ml | antibacterial activity by bacterial ATP content (IC50), [LRR domain] [5]: None detected | minimal inhibitory concentration (MIC) [6]: >128 microgram/ml | minimal inhibitory concentration (MIC) [7]: 4 microgram/ml | minimal inhibitory concentration (MIC) [8]: 4 microgram/ml | minimal inhibitory concentration (MIC) [9]: 4 microgram/ml | antibacterial activity by bacterial ATP content (IC50), [LRR domain] (Escherichia coli (8739)): >100 microgram/ml | anti-bacterial activity by agar diffusion assay [10]: Anti-bacterial activity | membrane polarity of E. coli (depolarised bacteria taking up DiBAC4) (E. coli): influence | minimal inhibitory concentration (MIC) [11]: 2 microgram/ml | antibacterial activity on S. aureus viability under bacterial stress ([12]; FIG. 13, ATP-coupled luminescent assay at 35° C., 37° C. and 39° C.): increased with bacterial stress | antibacterial activity by bacterial ATP content (IC50), [LRR domain] ([12]; Staphylococcus aureus (29213), gram +, +/− SD, n = 3, >100 = activity detected but <50% inhibition): 6.0 +/− 4.0 microgram/ml | L. monocytogenes growth (L. monocytogenes): inhibited | minimal inhibitory concentration (MIC) [13]: 4 microgram/ml | inhibition of antibacterial effect by preincubation with heat-killed S. aureus (Staphylococcus aureus; Nod2 30 microgram/ml preincubated with 200 microgram/ml HKSA): Only heat-killed S. aureus was capable of inhibiting | inhibition of antibacterial effect by preincubation with proteoglycan or lipoteichoic acid (Staphylococcus aureus; Nod2 30 microgram/ml preincubated with 200 microgram/ml bacterial component): Neither S. aureus proteoglycan containing the MDP motif, nor lipoteichoic acid inhibited | minimal inhibitory concentration (MIC) [14]: 32 microgram/ml | antibacterial activity by bacterial ATP content (IC50), [LRR domain] [15]: 13.7 +/− 13.0 microgram/ml | antibacterial activity by bacterial ATP content (IC50), [LRR domain] [16]: 3.0 +/− 1.6 microgram/ml | porins (OmpC and OmpF) identified in eluate of LRR affinity column (porins (OmpC and OmpF)): specifically identified in the eluate | minimal inhibitory concentration (MIC) (E. coli NB27004): >128 microgram/ml | antibacterial activity by bacterial ATP content (IC50), [LRR domain] [17]: None detected | potency relative to ciprofloxacin on a molar (mmoles/ml) basis [18]: 25-200 times | antibacterial activity by bacterial ATP content (IC50), [LRR domain] [19]: None detected | minimal inhibitory concentration (MIC) [20]: 8 microgram/ml | minimal inhibitory concentration (MIC) (H. influenzae NB65027): >128 microgram/ml
